Data from patent KR20200072008A.

Columns and labels:
[1] = molecular target: GST-SNAP25 197 (UniProt P60880)
[2] = molecular target: GST-SNAP25 FL (UniProt P60880)
[3] = molecular target: GST-SNAP25 197 (UniProt P60880); test: direct ELISA; A450 on GST-SNAP25 197 divided by A450 on GST-SNAP25 FL

Chain of GST-SNAP25 197 (P60880 1-197 limits assumed): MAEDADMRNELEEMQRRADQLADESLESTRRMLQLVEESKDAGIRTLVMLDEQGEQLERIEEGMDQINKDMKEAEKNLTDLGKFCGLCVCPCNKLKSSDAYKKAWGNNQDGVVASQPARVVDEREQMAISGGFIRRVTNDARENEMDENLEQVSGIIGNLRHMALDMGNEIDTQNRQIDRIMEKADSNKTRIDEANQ
Chain of GST-SNAP25 FL (P60880 whole entry): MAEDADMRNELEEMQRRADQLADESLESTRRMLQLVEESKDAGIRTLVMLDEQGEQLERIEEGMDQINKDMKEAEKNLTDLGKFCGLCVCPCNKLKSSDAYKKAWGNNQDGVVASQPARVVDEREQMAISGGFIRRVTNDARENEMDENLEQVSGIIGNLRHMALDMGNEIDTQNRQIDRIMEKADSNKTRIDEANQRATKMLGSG

Binder | A450 with SNAP25 197 [1] | A450 with SNAP25 FL [2] | Ratio 197/206 [3]
C4 (antibody, V domains shown) VH: DVKLQESGPGLVKPSQSLSLTCTVTGYSITSDYAWNWIRQFPGNKLEWMGYISYSVGTRYNPSLKSRISITRDTSKNQFFLLLKSVTNEDTATYFCARKGEYGFAYWGQGTLVTVSA VL: DIVMTQSPASLAVSLGQRATISCRASKSVSTSGYSYMHWYQQKPGQPPKLLIYLASNLESGVPARFSGSGSGTDFTLNIHPVEEEDAATYYCQHSRELPLTFGAGTKLELK | 0.919 | 0.001 | 919
C7 (antibody, V domains shown) VH: QVQLVETGGGLVQPKGSLKLSCAASGFTFNTNAMNWVRQAPGKGLEWVARIRSKSNNYATYYADSVKDRFTISRDDSQSLLYLQMNNLKTEDTAMYYCVYGRSYGGLSYWGQGTLVTVSA VL: DIVMTQSPASLAVSLGQRATISCRASKSVSSSGYSYMHWYQQKPGQPPKLLIYLASNLESGVPARFSGSGSGTDFTLNIHPVEEEDAATYYCQHSRELPLTFGAGTKLELK | 1.2 | 0.001 | 1040
C14 (antibody, V domains shown) VH: EVKLVESGGGLVQPKGSLKLSCAASGFTFNTNAMNWVRQAPGKGLEWVARIRSKSDNYATYYADSVKDRFTISRDDSPSMLYLQMNNLKTEDTAMYYCVYGRSYGGLGYWGQGTLVTVSA VL: DIVLTQSPASLAVSLGQRATISCRASKSVSTSGYSYVHWYQQKPGQPPKLLIYLASNLESGVPARFSGSGSGTDFTLNIHPVEEEDAATYYCQHSRELPLTFGAGTKLELK | 0.953 | 0.001 | 953
C16 (antibody, V domains shown) VH: EVQLQQSGAELARPGASVQMSCKAFGYTFTNYTMHWVRQRPGQGLEWIGFINPSSDYTNYNQKFKDKATLSADKSSSTAYMQLSSLTSEDSAVYYCARRIFYNGRTYAAMDYWGQGTSVTVSS VL: DIVMTQSPASLAVSLGQRATISCRASKSVSSSGYSYMHWYQQKPGQPPKLLIYLASNLESGVPARFSGSGSGTDFTLNIHPVEEEDAATYYCQHSRELPLTFGAGTKLELK | 0.996 | 0.001 | 996
C24 (antibody, V domains shown) VH: EVKLVESGGGLVQPKGSLKLSCAASGYTFNTYAMNWVRQAPGKGLEWVARIRSKSNNYTTYYADSVKDRFTISRDDSQSMLYLQINNLKTEDTAMYYCVGQILYYYVGSPAWFAYWGQGTLVTVSA VL: DIVMTQSPASLAVSLGQRATISCRASKSVSTSGYSYMHWYQQKPGQPPKLLIFLASNLESGVPARFSGSGSGTDFTLNIHPVEEEDAATYYCQHSRELPWTFGGGTKLEIK | 0.973 | 0.001 | 973
D3 (antibody, V domains shown) VH: EVQLEESGGGLVQPGGSLKLSCAASGFTFSNYGMSWVRQTPDKRLELVATINSNGGTTYYPDSVKGRFTISRDNAKNTLYLQMSSLKSEDSAMYYCARDRDAMDYWGQGTSVTVSS VL: DVLMTQTPLSLPVSLGDQASISCRSSQSIVNSHGNTYLEWYLQKPGQSPKLLIYKVSNRFSGVPDRFSGSGSGTDFTLKISRVEAEDLGVYYCFQGSHVPWTFGGGTKLEIK | 1.62 | 0.125 | 12.9
D2 (antibody, V domains shown) VH: DVKLQESGPGLVKPSQSLSLTCSVTGYSITSGYYWNWIRQFPGNKLEWMGYIRYDGSNNYNPSLKNRISITRDTSKNQFFLKLNSVTTEDTASYYCARDRDSSYYFDYWGQGTALTVSS VL: DIVMTQSSSYLSVSLGGRVTITCKASDHINNWLAWYQQKPGNAPRLLISDTTSLETGVPSRFSGSGSGKDYTLSITSLQTEDVATYYCQQYWSAPPTFGGGTKLEIK | 0.048 | 1.45 | 0.03
B4 (antibody, V domains shown) VH: EVKLVESGGGLVKPGGSLKLSCAASGFTFSNYGMSWVRQTPEKRLEWVATISSGGSYTYYPDSVKGRFTISRDNAKNTLYLQMSSLRSEDTAMYYCARHEGGGNPYFDYWGQGTTLTVSS VL: DVLMTQTPLSLPVSLGDQASISCRSSQSLVHSNGNTYLHWYLQKPGQSPKLLIYKVSNRFSGVPDRFSGSGSGTDFTLKISRVEAEDLGVYFCSQNTLVPWTFGGGTKLEIK | 1.8 | 2.16 | 0.83
